According to US20250154235A1 (NEURIMMUNE, published 2025):
Each block holds one binder with its values, some of them ahead of it. Ends that are not written are not given here.

Key:
[1] = molecular target: T1, bovine serum albumin (BSA) (bovine, UniProt P02769 25-607); experiment: direct ELISA, BSA coated at 10 ug/ml
T1 construct: Control antigen in the ELISA
Experimental: (§1) The antibody capacity to bind TTR and/or misfolded, misassembled and/or aggregated forms of TTR was evaluated by means of direct ELISA assays at varying antibody concentrations. This allows to determinate for each antibody its half maximal effective concentration (EC50) in this assay, which is a commonly used proxy for the antibody binding affinity, see FIG. 2A-2C. […] Antibodies against TTR were diluted in PBS at 11 different concentrations ranging from 4 to 400 nM, and incubated in the ELISA plates overnight at 4° C. After 3 washes with PBS-T, ELISA plates were incubated with a HRP-coupled, human IgG-specific secondary antibody for 1 h at RT (1/4000 dilution). After 3 washes with PBS-T, the ELISA reactions were developed with TMB for exactly 10 min at RT and quantified by measuring the optical density at 450 nm (OD450 nm).
(§2) Subsequently, the antibody's EC50s were determined by fitting the data with a non-linear regression using the least square method in order to estimate the antibody binding affinity under these conditions.

[2] = molecular target: T2, TTR 15-mer peptide GLTTEEEFVEGIYKV (human, also: covalently bound to a membrane); experiment: pepscan membrane of 15-mer TTR peptides (peptides 15 and 16)
T2 peptide: GLTTEEEFVEGIYKV
Experimental: (§3) Additional peptides including selected mutations were also plotted on the membrane. The membrane was blocked in Roti blocking buffer overnight at 4° C., incubated first with the anti-TTR antibody diluted in blocking buffer for 2 h at RT, then with an HRP-coupled anti human IgG antibody for 45 min at RT (dilution 1/20000 in TBS). The reaction was developed with luminol and imaged by luminescence.

[3] = molecular target: T3, TTR 15-mer peptide EEEFVEGIYKVEIDT (human, also: covalently bound to a membrane); experiment: as above
T3 peptide: EEEFVEGIYKVEIDT
Experimental: as §3

[4] = molecular target: mouse TTR protein contained in wild-type mouse liver extract (mouse, UniProt P07309 21-147); experiment: western blot, wild-type mouse liver extract 10 ug total protein
Experimental: FIGS. 4A-4D: Specificity for aggregated TTR on western blot. [0047] […] To prevent dissociation of the high molecular weight aggregates, the aggregated TTR sample was crosslinked with glutaraldehyde (1%, 5 min) prior to loading on the gel.
The binding specificity and selectivity of anti-TTR antibodies was evaluated by means of western blot, see FIG. 4A-4D. In brief, human wild-type TTR protein (300 ng) in native or misfolded-aggregated conformations, and wild-type mouse liver extract (10 μg total protein) were loaded on a SDS-PAGE gel and transferred onto a nitrocellulose membrane using a semi-dry transfer system. […] After 4 washes with PBS-T for 5 min at RT, the membrane was incubated with the appropriate secondary antibody (HRP-coupled; 1/10000 dilution in blocking buffer) for 1 h at RT. After 3 washes with PBS-T and a final one in PBS, the membrane was developed with luminol and the signal intensity quantified by measuring luminescence. Shortly before use, the misfolded-aggregated TTR sample was submitted to crosslinking with glutaraldehyde (1%, 5 min, 37° C.) to prevent the dissociation of TTR aggregates during the preparation process for SDS-PAGE. In contrast, the native TTR sample was not crosslinked before use, such that the TTR homotetramer (which is the native TTR conformation under physiological conditions) almost entirely dissociated into monomers and dimers.

[5] = molecular target: T4, misfolded-aggregated human wild-type TTR (human, UniProt P02766 21-147); experiment: direct ELISA, misfolded-aggregated human wild-type TTR coated at 10 ug/ml
Experimental: as §1, §2

[6] = molecular target: misfolded-aggregated recombinant V30M-TTR (human, UniProt P02766 21-147); experiment: direct ELISA, misfolded-aggregated recombinant V30M-TTR coated at 10 ug/ml
Experimental: as §1, §2

native TTR-V30M = native TTR-V30M (human, UniProt P02766 21-147); experiment: SPR (ProteOn XPR36), antibody captured by anti-human IgG-Fc, TTR in solution 3.2-316 nM, Langmuir 1:1 fit
Experimental: (§4) SPR analysis was performed on a BioRad ProteOn XPR36 fitted with a GLM sensor chip. An anti-human antibody directed against the Fc gamma domain was covalently coupled to the detection surface and saturated with the antibody under investigation. […] The antibody-antigen association was analyzed during 180 s and the dissociation during 600 s. A Langmuir binding model (simple 1:1 association) was used to fit the data and derive the association (ka) and dissociation (kd) constants, and the affinity (KD).
(§5) An anti-human IgG-Fcγ antibody was covalently coated on the detection surfaces, and used to capture the human TTR-specific antibodies.

native TTR-L55P = native TTR-L55P (human, UniProt P02766 21-147); experiment: as above
Experimental: as §4, §5

[7] = molecular target: T4, misfolded-aggregated human wild-type TTR; experiment: as above
Experimental: as §4, §5

[8] = molecular target: T1, bovine serum albumin (BSA); experiment: dot blot on nitrocellulose, NI-301.mur35G11 10 nM, anti-mouse IgG2a-HRP detection
Experimental: FIGS. 6A-6C: Absence of binding to human plasma TTR on dot blot. [0051] […] [0052] Samples 1-6:150 ng of 1) aggregated wt-TTR, 2) native wt-TTR, 3) BSA, 4) native V30M-TTR, 5) native L55P-TTR and 6) native Y78F-TTR. [0053] Samples 7-18:2 μl of plasma collected from 7-10) controls (n=4), 11-14) asymptomatic mutation carriers (n=4) and 15-18) FAP patients (n=4).

[9] = molecular target: T5, TTR 15-mer peptide TSESGELHGLTTEEE (human, also: covalently bound to a membrane); experiment: pepscan membrane of 15-mer TTR peptides (peptides 13 and 14)
T5 peptide: TSESGELHGLTTEEE
Experimental: as §3

[10] = molecular target: T6, TTR 15-mer peptide GELHGLTTEEEFVEG (human, also: covalently bound to a membrane); experiment: as above
T6 peptide: GELHGLTTEEEFVEG
Experimental: as §3

[11] = molecular target: T7, TTR-E42G peptide sequence WGPFA (41-45) (human); experiment: pepscan membrane, mutant peptide
T7 construct: Present in a mutant 15-mer spot of the pepscan membrane
T7 peptide: WGPFA
Experimental: as §3

[12] = molecular target: T8, TTR 15-mer peptide FRKAADDTWEPFASG (human, also: covalently bound to a membrane); experiment: pepscan membrane of 15-mer TTR peptides (peptides 9, 10 and 11)
T8 peptide: FRKAADDTWEPFASG
Experimental: as §3

[13] = molecular target: T9, TTR 15-mer peptide ADDTWEPFASGKTSE (human, also: covalently bound to a membrane); experiment: as above
T9 peptide: ADDTWEPFASGKTSE
Experimental: as §3

[14] = molecular target: T10, TTR 15-mer peptide WEPFASGKTSESGEL (human, also: covalently bound to a membrane); experiment: as above
T10 peptide: WEPFASGKTSESGEL
Experimental: as §3

T1 sequence (P02769 25-607 limits assumed): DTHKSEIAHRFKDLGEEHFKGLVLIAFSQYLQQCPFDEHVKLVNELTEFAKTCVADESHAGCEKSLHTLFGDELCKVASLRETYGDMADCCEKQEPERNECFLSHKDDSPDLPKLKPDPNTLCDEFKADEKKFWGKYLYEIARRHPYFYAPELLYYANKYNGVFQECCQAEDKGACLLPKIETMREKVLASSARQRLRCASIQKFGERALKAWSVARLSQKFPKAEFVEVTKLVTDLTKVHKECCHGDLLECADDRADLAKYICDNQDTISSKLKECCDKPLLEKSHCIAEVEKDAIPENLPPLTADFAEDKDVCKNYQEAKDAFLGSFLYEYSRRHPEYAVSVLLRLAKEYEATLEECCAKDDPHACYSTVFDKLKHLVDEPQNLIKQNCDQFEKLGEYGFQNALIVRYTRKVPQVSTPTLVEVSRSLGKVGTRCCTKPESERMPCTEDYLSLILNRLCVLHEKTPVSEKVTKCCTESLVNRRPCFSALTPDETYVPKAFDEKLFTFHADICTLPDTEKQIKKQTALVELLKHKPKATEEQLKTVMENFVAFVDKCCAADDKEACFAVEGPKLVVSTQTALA

binding result [1]: no binding (tested: up to 400 nM) | binding result [2]: binds | binding result [3]: binds | binding result [4]: no binding (tested: 50 nM) | EC50 [5]: 3 nM | EC50 [6]: 15.5 nM | Kd (native TTR-V30M): 16 nM | koff (native TTR-V30M): 0.00022 s⁻¹ | kon (native TTR-V30M): 13000 M⁻¹ s⁻¹ | Kd (native TTR-L55P): 3.1 nM | koff (native TTR-L55P): 0.00015 s⁻¹ | kon (native TTR-L55P): 51000 M⁻¹ s⁻¹ | Kd [7]: 3.5 nM | koff [7]: 0.00034 s⁻¹ | kon [7]: 97000 M⁻¹ s⁻¹
B1: NI-301.59F1 (antibody, V domains shown)
VH: EVQLVESGGGLVQPGGSLRLSCVASGFTFSNYWMSWVRQAPGKGLEWVANINQDSEKYYVDSVKGRFAISRDNSKNSLYLQMNSLRVEDTGVYYCARDRYCSGGRCSRGNNWFDPWGQGTLVTVSS
VL: not shown

binding result [8]: no binding (tested: 10 nM)
B2: mouse chimeric antibody NI-301.mur35G11 (antibody, V domains shown)
VH: EVQLVESGGGLVQPGGSLRLSCVASGFTFSSYAMSWVRQVPGKGLEWVSSISGSGDTTKYTDSVKGRFTISRDNSKNTVFLQMSSLRAEDTALYYCVKDGSGRIDPFALWGQGTMVTVSS
VL: EIVMTQSPLSLPVTLGQPASISCRSSRSLVYSDGNIYLNWFQQRPGQSPRRLIYKVSNRDSGVPDRFSGSGSDTDFTLRISRVEAEDVGVYYCMQGTHWPRTFGQGTKVEIK
notes: detected with anti-mouse IgG2a secondary antibody; also called murine chimeric anti-TTR antibody

binding result [1]: no binding (tested: up to 400 nM) | binding result [9]: binds | binding result [10]: binds | binding result [4]: no binding (tested: 50 nM)
B3: NI-301.35G11 (antibody, V domains shown)
VH: B2 VH
VL: B2 VL
notes: also called NI.35G11

binding result [11]: no binding (tested: 50 nM) | binding result [1]: no binding (tested: up to 400 nM) | binding result [12]: binds | binding result [13]: binds | binding result [14]: binds | binding result [4]: no binding (tested: 50 nM)
B4: NI-301.37F1 (antibody, V domains shown)
VH: QVQLQESGPGLVKPSETLSLTCSVSGGSIISRSSYWGWIRQPPGKGLEWIGGIYHSGNTYDNPSLKSRLTMSVDTSKNQFSLNLRSVTAADTAVYYCARIVPGGDAFDIWGQGTMVTVSS
VL: DIQMTQSPSSLSASVGDRVTIACRASQSVGTYLNWYQQKRGKAPKLLIFAASSLQSGVPSRFSGSGSGTDFTLTISSLQPEDFATYYCQQSYSSPPTFGQGTKVEIK
